B1: neutrophil cytosol factor 1 (p47phox), endogenous in THP-1 cells (other)
chain: MGDTFIRHIALLGFEKRFVPSQHYVYMFLVKWQDLSEKVVYRRFTEIYEFHKTLKEMFPIEAGAINPENRIIPHLPAPKWFDGQRAAENRQGTLTEYCSTLMSLPTKISRCPHLLDFFKVRPDDLKLPTDNQTKKPETYLMPKDGKSTATDITGPIILQTYRAIANYEKTSGSEMALSTGDVVEVVEKSESGWWFCQMKAKRGWIPASFLEPLDSPDETEDPEPNYAGEPYVAIKAYTAVEGDEVSLLEGEAVEVIHKLLDGWWVIRKDDVTGYFPSMYLQKSGQDVSQAQRQIKRGAPPRRSSIRNAHSIHQRSRKRLSQDAYRRNSVRFLQQRRRQARPGPQSPGSPLEEERQTQRSKPQPAVPPRPSADLILNRCSESTKRKLASAV
notes: Human by the cell line; also called p47phox, 45K
B2: p22phox, endogenous in THP-1 cells (other)
chain: GQIEWAMWANEQALASGLILITGGIVATAGRFTQWYFGAYSIVAGVFVCLLEYPRGKRKKGSTMERWGQKYMTAVVKLFGPFTRNYYVRAVLHLLLSVPAGFLLATILGTACLAIASGIYLLAAVRGEQWTPIEPKPRERPQIGGTIKQPPSNPPPRPPAEARKKPSEEEAAVAAGGPPGGPQVNPIPVTDEVV

Columns and labels:
[1] = target: unlabeled p47phox (in vitro titration); assay: fluorescence titration of BODIPY FL-labeled MPT63 with unlabeled p47phox, curve fitting, 25 C
[2] = target: unlabeled TBK1 (in vitro titration); assay: fluorescence titration of BODIPY FL-labeled MPT63 with unlabeled TBK1, curve fitting, 25 C
Chain of unlabeled TBK1 (in vitro titration) (Q9UHD2 whole entry): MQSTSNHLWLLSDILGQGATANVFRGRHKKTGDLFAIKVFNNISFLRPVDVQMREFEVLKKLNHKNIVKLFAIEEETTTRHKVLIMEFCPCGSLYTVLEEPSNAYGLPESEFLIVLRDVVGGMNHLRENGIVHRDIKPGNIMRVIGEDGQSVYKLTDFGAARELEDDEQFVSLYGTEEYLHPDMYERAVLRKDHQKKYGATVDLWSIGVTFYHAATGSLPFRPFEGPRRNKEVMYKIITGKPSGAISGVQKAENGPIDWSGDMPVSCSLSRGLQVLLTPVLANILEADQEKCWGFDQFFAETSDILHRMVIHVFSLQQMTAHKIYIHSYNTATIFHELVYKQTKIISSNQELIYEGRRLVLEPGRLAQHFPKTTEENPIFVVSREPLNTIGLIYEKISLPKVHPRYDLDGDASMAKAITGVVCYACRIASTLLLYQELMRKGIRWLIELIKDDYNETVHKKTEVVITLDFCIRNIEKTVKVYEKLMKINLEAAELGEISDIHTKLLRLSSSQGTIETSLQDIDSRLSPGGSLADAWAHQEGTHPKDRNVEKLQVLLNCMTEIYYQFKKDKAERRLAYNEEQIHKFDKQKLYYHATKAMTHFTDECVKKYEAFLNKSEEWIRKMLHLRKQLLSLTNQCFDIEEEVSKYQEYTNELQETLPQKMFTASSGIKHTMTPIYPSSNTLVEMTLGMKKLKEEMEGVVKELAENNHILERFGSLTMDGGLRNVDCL

[3] = target: unlabeled HK2 (in vitro titration); assay: fluorescence titration of BODIPY FL-labeled MPT64 with unlabeled HK2, curve fitting, 25 C
[4] = target: unlabeled TBK1 (in vitro titration); assay: fluorescence titration of BODIPY FL-labeled MPT64 with unlabeled TBK1, curve fitting, 25 C
[5] = target: T1, p67phox, endogenous in THP-1 cells (human, UniProt P19878 1-526); assay: co-IP in THP-1 cells treated with p47 peptide
T1 sequence: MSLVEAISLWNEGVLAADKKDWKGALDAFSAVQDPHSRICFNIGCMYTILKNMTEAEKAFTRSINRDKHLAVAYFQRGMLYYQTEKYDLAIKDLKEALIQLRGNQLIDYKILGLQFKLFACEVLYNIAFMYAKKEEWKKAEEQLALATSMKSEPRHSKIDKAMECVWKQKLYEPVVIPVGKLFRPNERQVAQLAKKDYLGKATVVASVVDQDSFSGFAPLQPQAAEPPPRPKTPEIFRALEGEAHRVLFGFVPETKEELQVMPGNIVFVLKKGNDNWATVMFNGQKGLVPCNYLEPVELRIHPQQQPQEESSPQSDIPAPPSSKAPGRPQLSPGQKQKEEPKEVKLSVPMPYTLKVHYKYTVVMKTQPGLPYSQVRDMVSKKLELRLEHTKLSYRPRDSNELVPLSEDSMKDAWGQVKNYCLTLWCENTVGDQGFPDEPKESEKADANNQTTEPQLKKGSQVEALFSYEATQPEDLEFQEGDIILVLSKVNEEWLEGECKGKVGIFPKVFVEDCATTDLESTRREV

[6] = target: B1; assay: co-IP in THP-1 cells treated with p47 peptide

Molecule “recombinant MPT63 (rMPT63) (from UniProt P9WIP1 30-159)” has a Kd [1] of 345 nM and a Kd [2] of 178 nM.

With “recombinant MPT64 (rMPT64) (from UniProt P9WIN9 24-228)” the Kd [3] was 134 nM and the Kd [4] was 193 nM.

B1: binds [5].

B2: binds [6].
